The text below walks through data of publication PMC8440666, “Allosteric modulation of LRRC8 channels by targeting their cytoplasmic domains” (Nature Communications, 2021).

By stoichiometry N is commonly meant a count of units in the complex or per binding partner. What is called Kd is the equilibrium constant for the complex coming apart. Higher therefore signals a looser complex. The term koff denotes the first-order rate constant of dissociation.

Test [1] addresses T1, full-length murine LRRC8A (homomeric hexameric channel) (mouse), Q80WG5.
T1 chain: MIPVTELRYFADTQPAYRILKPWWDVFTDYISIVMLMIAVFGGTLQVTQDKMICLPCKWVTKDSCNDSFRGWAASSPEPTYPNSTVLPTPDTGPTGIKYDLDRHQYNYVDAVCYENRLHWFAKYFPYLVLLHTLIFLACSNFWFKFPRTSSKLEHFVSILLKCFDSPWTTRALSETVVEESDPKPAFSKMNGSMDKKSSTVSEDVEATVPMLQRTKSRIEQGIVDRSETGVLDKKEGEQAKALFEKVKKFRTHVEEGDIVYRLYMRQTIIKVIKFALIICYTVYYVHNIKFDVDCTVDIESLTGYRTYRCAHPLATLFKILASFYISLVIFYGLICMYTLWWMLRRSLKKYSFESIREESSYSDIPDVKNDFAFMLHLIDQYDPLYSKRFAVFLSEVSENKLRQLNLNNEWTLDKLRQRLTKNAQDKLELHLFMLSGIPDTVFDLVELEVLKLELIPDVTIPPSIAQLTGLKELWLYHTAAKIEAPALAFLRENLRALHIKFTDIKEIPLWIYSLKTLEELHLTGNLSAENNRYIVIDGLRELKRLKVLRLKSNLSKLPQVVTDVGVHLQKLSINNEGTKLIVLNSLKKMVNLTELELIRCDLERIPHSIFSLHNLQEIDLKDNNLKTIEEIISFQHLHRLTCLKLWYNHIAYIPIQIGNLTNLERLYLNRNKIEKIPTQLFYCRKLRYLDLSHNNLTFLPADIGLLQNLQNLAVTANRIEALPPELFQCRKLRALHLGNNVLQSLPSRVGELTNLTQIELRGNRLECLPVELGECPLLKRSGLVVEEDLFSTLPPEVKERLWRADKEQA
The test is described as follows: cryo-EM structure; sybody added to purified full-length LRRC8A at a molar ratio sybody/LRRC8A monomer of 1.25-1.5 (0.5 for Sb4_(0.5)), no further chromatography; C3 symmetry imposed. As to conditions: remark: other sources report otherwise.

Test [2] deals with T2, full-length murine LRRC8A (homomeric hexameric channel) (mouse, UniProt Q80WG5).
T2 construct: full-length mouse LRRC8A (NP_808393.1); For patch clamp it was expressed from a vector without mCherry in LRRC8-/- HEK293 cells; also called homomeric LRRC8A channel; not shown: mCherry, C-terminal, cleaved; myc, C-terminal, cleaved; SBP, C-terminal, cleaved
Described as above. As to conditions: both partners purified.

Test [3] deals with T3, LRR domain of LRRC8A (soluble cytoplasmic leucine-rich repeat domain of mouse LRRC8A) (Mus musculus, UniProt Q80WG5, chemically biotinylated with amine-reactive NHS-PEG4-Biotin for ELISA and SPR).
T3 construct: LRR domain of mouse LRRC8A, residues 398-810 of NP_808393.1; Used without biotin in SEC and biotinylated in SPR and ELISA; also called LRRC8A-cytosolic domain (LRR); LRRC8A-LRR domain; not shown: SBP, N-terminal, cleaved; myc, N-terminal, cleaved
The test is described as follows: SPR; Biacore T100; chemically biotinylated LRR domain immobilised on streptavidin chip (~100 RU), sybody as analyte; 20 °C, 10 mM HEPES pH 7.4, 150 mM NaCl, 0.5 mM EDTA, 0.05% Tween 20; multi-cycle kinetics (Sb1, Sb3, Sb4, Sb5) or single-cycle kinetics (Sb2); 1:1 binding model. As to conditions: both partners purified. For orientation: Surface plasmon resonance follows binding to a sensor surface in real time, without labels.

Test [4] addresses T2, full-length murine LRRC8A (homomeric …). The test is described as follows: cell-based or functional assay.

Values joined by “and” are separate entries in the source; they are usually repeats but may differ in a detail not shown here. Equal entries are not always repeated.

B1: full-length murine LRRC8A (homomeric hexameric channel), Q80WG5 1-810 (natural protein)
chain: MIPVTELRYFADTQPAYRILKPWWDVFTDYISIVMLMIAVFGGTLQVTQDKMICLPCKWVTKDSCNDSFRGWAASSPEPTYPNSTVLPTPDTGPTGIKYDLDRHQYNYVDAVCYENRLHWFAKYFPYLVLLHTLIFLACSNFWFKFPRTSSKLEHFVSILLKCFDSPWTTRALSETVVEESDPKPAFSKMNGSMDKKSSTVSEDVEATVPMLQRTKSRIEQGIVDRSETGVLDKKEGEQAKALFEKVKKFRTHVEEGDIVYRLYMRQTIIKVIKFALIICYTVYYVHNIKFDVDCTVDIESLTGYRTYRCAHPLATLFKILASFYISLVIFYGLICMYTLWWMLRRSLKKYSFESIREESSYSDIPDVKNDFAFMLHLIDQYDPLYSKRFAVFLSEVSENKLRQLNLNNEWTLDKLRQRLTKNAQDKLELHLFMLSGIPDTVFDLVELEVLKLELIPDVTIPPSIAQLTGLKELWLYHTAAKIEAPALAFLRENLRALHIKFTDIKEIPLWIYSLKTLEELHLTGNLSAENNRYIVIDGLRELKRLKVLRLKSNLSKLPQVVTDVGVHLQKLSINNEGTKLIVLNSLKKMVNLTELELIRCDLERIPHSIFSLHNLQEIDLKDNNLKTIEEIISFQHLHRLTCLKLWYNHIAYIPIQIGNLTNLERLYLNRNKIEKIPTQLFYCRKLRYLDLSHNNLTFLPADIGLLQNLQNLAVTANRIEALPPELFQCRKLRALHLGNNVLQSLPSRVGELTNLTQIELRGNRLECLPVELGECPLLKRSGLVVEEDLFSTLPPEVKERLWRADKEQA
For B1, the stoichiometry N in test [1] was found to be 6 subunits.

B2: sybody Sb2^LRRC8A (VHH)
VHH: QVQLVESGGGLVQAGGSLRLSCAASGFPVYQAWMWWYRQAPGKEREWVAAIESEGQYTWYADSVKGRFTISRDNAKNTVYLQMNSLKPEDTAVYYCNVKDTGHTTNQYDYWGQGTQVTVSA
notes: loop library; Synthetic nanobody selected by ribosome and phage display against full-length LRRC8A; For electrophysiology expressed in HEK293 cells with C-terminal Venus-myc-SBP; source: E. coli MC1061, periplasmic expression, purified (Ni-NTA, SEC on Superdex 75)
Consider B2, for which the “stoichiometry N” value in test [2] is 6 sybodies per hexameric channel. In test [3], the dissociation constant (Kd) is 35 nM and 60 nM; the off-rate constant (koff) is 0.003 s⁻¹.

B3: sybody Sb1^LRRC8A (VHH)
VHH: QVQLVESGGGLVQAGGSLRLSCAASGFPVGRHFMYWYRQAPGKEREWVAAIYSYGEYTEYADSVKGRFTISRDNAKNTVYLQMNSLKPEDTAVYYCYVYVGNEYWGQGTQVTVSA
notes: residues 1-116 modelled; concave library; Synthetic nanobody selected by ribosome and phage display against full-length LRRC8A; N-terminal pelB leader for periplasmic expression; For electrophysiology also expressed in HEK293 cells with C-terminal Venus-myc-SBP; source: E. coli MC1061, periplasmic expression, purified (Ni-NTA, SEC on Superdex 75)
Take B3: in test [2], the “stoichiometry N” value was 6 sybodies per hexameric channel. For the same molecule, in test [4], the “current density of endogenous VRAC in HEK293 cells, whole-cell patch clamp, 125 mM intracellular salt, 1 µM Sb1 in the pipette solution” value is about 4 fold reduction. For the same molecule, in test [3], the dissociation constant (Kd) was 24 nM and 22 nM; the off-rate (koff) was 0.03 s⁻¹ and 0.037 s⁻¹.

B4: sybody Sb5^LRRC8A (VHH)
VHH: QVQLVESGGGLVQAGGSLRLSCAASGFPVAQEIMTWYRQAPGKEREWVAAISSIGDTTAYADSVKGRFTISRDNAKNTVYLQMNSLKPEDTAVYYCAVNVGFTYKGQGTQVTVSA
notes: concave library; Synthetic nanobody selected by ribosome and phage display against full-length LRRC8A; For electrophysiology expressed in HEK293 cells with C-terminal Venus-myc-SBP; source: E. coli MC1061, periplasmic expression, purified (Ni-NTA, SEC on Superdex 75)
As to B4, in test [4], the “endogenous VRAC current density in HEK293 cells expressing Sb5 compared to non-transfected cells, whole-cell patch clamp, 125 mM (about 50% increase) and 175 mM intracellular salt” value was about 2.3 fold increase. Also, in test [3], the dissociation constant Kd is 175 nM and 170 nM; the off-rate (koff) is 0.199 s⁻¹ and 0.242 s⁻¹.

B5: sybody Sb3^LRRC8A (VHH)
VHH: QVQLVESGGGLVQAGGSLRLSCAASGFPVMNAGMYWYRQAPGKEREWVAAIESEGTSTYYADSVKGRFTISRDNAKNTVYLQMNSLKPEDTAVYYCNVKDVGDNHFPYDYWGQGTQVTVSA
notes: residues 1-120 modelled; loop library; Synthetic nanobody selected by ribosome and phage display against full-length LRRC8A; For electrophysiology expressed in HEK293 cells with C-terminal Venus-myc-SBP; source: E. coli MC1061, periplasmic expression, purified (Ni-NTA, SEC on Superdex 75)
In the case of B5, the “stoichiometry N” value in test [2] is 6 sybodies per hexameric channel. Besides, in test [3], the Kd is 800 nM and 913 nM; the dissociation rate constant (koff) is 0.104 s⁻¹ and 0.113 s⁻¹.

B6: sybody Sb4^LRRC8A (VHH)
VHH: QVQLVESGGGSVQAGGSLRLSCAASGYIYQIEYLGWFRQAPGKEREGVAALATWNGQTYYADSVKGRFTVSLDNAKNTVYLQMNSLKPEDTALYYCAAAYEGDTSPLYYEEYGYWGQGTQVTVSA
notes: convex library; Synthetic nanobody selected by ribosome and phage display against full-length LRRC8A; For electrophysiology expressed in HEK293 cells with C-terminal Venus-myc-SBP; source: E. coli MC1061, periplasmic expression, purified (Ni-NTA, SEC on Superdex 75)
For B6, the “endogenous VRAC current density in HEK293 cells expressing Sb4 compared to non-transfected cells, whole-cell patch clamp, 125 mM (about 50% increase) and 175 mM intracellular salt” value in test [4] was about 5 fold increase. Moreover, in test [3], the Kd was 27 nM and 17 nM; the koff was found to be 0.064 s⁻¹.
